Article PMC7054857 (The Journal of General Physiology, 2020)

Tests used:
Assay in all cases: FRET or BRET
[1] = target: ASIC3(466–505)1a-CER (rat) (UniProt O35240)
[2] = target: ASIC3(1–43,466–505)1a-CER (rat) (UniProt O35240)
[3] = target: ASIC3(506–519)1a-CER (rat) (UniProt O35240)
[4] = target: T1, ASIC3(44–71)1a-CER (rat, UniProt O35240 1-43; P55926 44-71; O35240 72-533)
T1 chain (looked up): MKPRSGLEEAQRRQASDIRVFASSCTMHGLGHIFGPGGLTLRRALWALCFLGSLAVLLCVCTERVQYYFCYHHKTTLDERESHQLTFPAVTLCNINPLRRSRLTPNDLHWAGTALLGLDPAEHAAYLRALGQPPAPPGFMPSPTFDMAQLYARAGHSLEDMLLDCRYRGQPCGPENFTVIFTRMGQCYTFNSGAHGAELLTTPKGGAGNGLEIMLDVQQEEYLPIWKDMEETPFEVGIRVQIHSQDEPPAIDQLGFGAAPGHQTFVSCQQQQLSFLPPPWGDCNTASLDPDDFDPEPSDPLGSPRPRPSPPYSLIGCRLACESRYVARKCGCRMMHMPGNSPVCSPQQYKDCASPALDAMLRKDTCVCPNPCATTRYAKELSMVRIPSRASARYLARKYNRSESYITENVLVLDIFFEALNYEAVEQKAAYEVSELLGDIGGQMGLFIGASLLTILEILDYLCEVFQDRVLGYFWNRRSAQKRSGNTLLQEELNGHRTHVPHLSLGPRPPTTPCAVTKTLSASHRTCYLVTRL

[5] = target: T2, ASIC3(Q269G)-CER (rat, UniProt O35240 1-533, Q269G)
T2 sequence (looked up): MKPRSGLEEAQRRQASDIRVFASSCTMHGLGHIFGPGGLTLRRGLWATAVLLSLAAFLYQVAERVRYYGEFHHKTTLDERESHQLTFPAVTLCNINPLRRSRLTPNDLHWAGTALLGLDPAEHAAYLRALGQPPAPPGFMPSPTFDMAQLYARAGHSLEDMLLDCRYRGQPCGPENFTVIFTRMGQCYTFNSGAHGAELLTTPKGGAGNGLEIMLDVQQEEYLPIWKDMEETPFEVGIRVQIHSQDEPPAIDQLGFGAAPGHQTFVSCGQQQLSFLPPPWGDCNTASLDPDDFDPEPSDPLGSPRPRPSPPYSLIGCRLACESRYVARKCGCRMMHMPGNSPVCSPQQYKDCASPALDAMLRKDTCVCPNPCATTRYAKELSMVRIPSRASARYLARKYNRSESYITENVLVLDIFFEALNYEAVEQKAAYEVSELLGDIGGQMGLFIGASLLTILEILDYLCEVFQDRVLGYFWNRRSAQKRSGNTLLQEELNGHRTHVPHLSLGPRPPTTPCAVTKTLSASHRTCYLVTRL

[6] = target: T3, ASIC3-CER (rat acid-sensing ion channel 3 with a C-terminal mCerulean3) (rat, UniProt O35240 1-533)
T3 sequence (looked up): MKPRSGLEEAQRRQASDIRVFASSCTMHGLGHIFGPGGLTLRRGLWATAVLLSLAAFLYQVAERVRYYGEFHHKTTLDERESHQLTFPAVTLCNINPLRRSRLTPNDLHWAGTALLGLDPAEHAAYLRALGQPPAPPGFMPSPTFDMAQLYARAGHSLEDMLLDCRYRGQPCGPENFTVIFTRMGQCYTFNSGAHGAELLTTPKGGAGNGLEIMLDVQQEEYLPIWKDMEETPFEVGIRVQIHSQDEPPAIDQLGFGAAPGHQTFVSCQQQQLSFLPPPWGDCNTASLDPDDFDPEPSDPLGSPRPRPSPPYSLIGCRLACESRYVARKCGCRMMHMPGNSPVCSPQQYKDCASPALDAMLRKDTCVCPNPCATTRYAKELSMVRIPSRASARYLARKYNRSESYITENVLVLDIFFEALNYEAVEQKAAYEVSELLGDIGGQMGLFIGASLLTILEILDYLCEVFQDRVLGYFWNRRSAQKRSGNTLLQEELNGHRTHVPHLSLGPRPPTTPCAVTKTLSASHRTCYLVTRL

B1: STOM-YFP (mouse stomatin with a C-terminal EYFP) (natural protein, UniProt P54116 1-284, looked up)
chain: MSDKRQSSHVQSQRIPESFRENSKTELGACGWILVAASFFFVIITFPISIWICIKIVKEYERVIIFRLGRILQGGAKGPGLFFILPCTDSLIKVDMRTISFDIPPQEVLTKDSVTISVDGVVYYRVQNATLAVANITNADSATRLLAQTTLRNALGTKNLSQILSDREEIAHHMQSTLDDATDDWGIKVERVEIKDVKLPVQLQRAMAAEAEAAREARAKVIAAEGEMNASRALKEASMVITESPAALQLRYLQTLTTIAAEKNSTIVFPLPVDMLQGIMGSNH
In the case of B1, the FRET efficiency [1] is reported as 13.1%, the FRET efficiency [2] is reported as 9.3% and the FRET efficiency [3] is reported as 9.9%. It also gave an FRET efficiency [4] of 11.8%, an FRET efficiency [5] of 10.3% and an FRET efficiency [6] of 12.5%.
